Experiment: yeast display, Sf9 membrane polyspecificity reagent, FACS + sequencing; frameworks hold sequencing errors
Outline: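 Galactose induction of a Saccharomyces cerevisiae BJ5465 synthetic nanobody display library ran 36–48 hours. The cells were then stained for 1 hour at 4 °C with 10% biotinylated, detergent-solubilized Sf9 membrane reagent, pulled down on streptavidin microbeads and FACS-sorted into low and high (top ~1%) gates on expression and reagent-binding fluorescence. Labels for polyreactivity follow the gate of origin.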

| Sequence | polyreactivity (PSR sort gate) |
| --- | --- |
| QVQLVESGGGLVQAGGSLRISWAASGFTFYTYMGWYRQAPGKERELVAAISWSGDSTYYADSVKGRFTISRDNAKNTVYLQMNSLKPEDTAVYYCIADHGGSRYDYWGQGTQVTVSS | low polyreactivity |
| QVQLVESGGGLVQAGGSLRKSCAASRGILETNAIGWYRQAPGKERELVAAIDFSAGSTYYADSVKGRFTISRDNAKNTVYLQMNSLKPEDTAVYYCATRLGVLYDYWGHGTQVTVSS | low polyreactivity |
| QVQLVESGGGLVQAGGSLRLAVLPPDLPSTLNDMGWYRQAPGKERELVAAITRGGSTNYADSVKGRFTISRDNAKNTVYLEMNSLKPEDTAVYYCAAPYAGWRDGGDYWGQGTQVTVSS | low polyreactivity |
| QVQLVESGGGLVQAGGSLRLCCAASGRTFPYYALGWYRQAPGKESELVAGITSNAGSTYYADSVKGRFSISRDNAKNTVYLHRHRLKAEDTAVYYCAKYGRATRGLDNYWGQGTQVTVSS | high polyreactivity |
| QVQLVESGGGLVQAGGSLRLFCAASGITSSYYAMLWYRQAPGKERDLVADISQSGGSTYYADSVKGRFTISRDNAKNTVYLQMNSLKPEDTAVYYWAADTYWWSYLYDYWGQGTQVTVSS | high polyreactivity |
| QVQLVESGGGLVQAGGSLRLICAASALIFGAYTMGWYIQAPGKERELVAAIRRSGSTYYPDSVKGRFTISRDNAKNTVYLQMNSLKPEDTAVYYGNARIGPGRYTYYRSGYDYWGQGTQVTVSS | high polyreactivity |
| QVQLVESGGGLVQAGGSLRLICAASGFIFGGYAMGWYRQAHGKERELVAAISSSGGSTYYADSVKGRFTISRDNAKNTVYLQMNSLKPEDTAVYYCAADRYYYRGRYYGYTREFDYWGQGTQVTVSS | high polyreactivity |
| QVQLVESGGGLVQAGGSLRLICAASGFIFPVNAMGWYRQAPGKERELVAAITSSGGDTYYADSVKGRFTISRDNAKNTVYLQMNSLKPEDTAVYYFAAEYTQEQEDYDYWGQVTQVTVSS | low polyreactivity |
| QVQLVESGGGLVQAGGSLRLICAASGFIFRRNARGWSRPAPGTERELVAAISSSGGSTYYADSVKGRFTISRDNAKNTVYLQMNSLKPEDTAVYYCATVLRVTRVDYWGQGTQVTVSS | high polyreactivity |
| QVQLVESGGGLVQAGGSLRLICAASGFIFRSYAMGWYRQAPGKEREFDAGINRRGGSTYYADSVKGRFTISRDNAKNSVYLQMNILKPEDTAVYYCAAVYYNRVDYWGQGTQVTVSS | high polyreactivity |
| QVQLVESGGGLVQAGGSLRLICAASGFIFVWYAMGWYRQAPGKERELVAAISRRGGGTYYADSVKGRFTISRDNAKNTVYLQMNSLKPEDTAVYYCAAGSYYRYGYDFNYWGQGTQVTVSS | high polyreactivity |
| QVQLVESGGGLVQAGGSLRLICAASGFISSENAMGWYRQAPGKERELVAAISSGGSTNYADSVKGRFTISRDNAKYTVYLQMYSLKPEDTAVYYCNAEAIQAVYYAYEYWGQGTQVTVSS | low polyreactivity |
| QVQLVESGGGLVQAGGSLRLICAASGFTFAGYAMGWYRQARGKDRELVAGIRSSGARTYYADSVKGRFTISRDNAKNTVYIQMNSLKPEDTAVYYCAKTDGFYRGYGYWGQGTQVTVSS | low polyreactivity |
| QVQLVESGGGLVQAGGSLRLICAASGFTFARYAMGWYRQAPGKERELVAAITSAGSTSYADSVKGRFTISRDNAKNTVYLQMNSLKPEDTAVYYCAAPFTVRYNYWGQGTKVTVSS | high polyreactivity |
| QVQLVESGGGLVQAGGSLRLICAASGFTFLTYAMGWYRQAPGKERELVAAIDSGDSTKYADSVKGRFTISRDNAKYTVYLQMNSLKPEDTAVYYCNASRRYHVLAPYDYWGQGTQVTVSS | low polyreactivity |
| QVQLVESGGGLVQAGGSLRLICAASGFTFRRYAMGWYRQAPGKEREFVAVITWSGTRTYYADSVKGRFTISRDNAKNTVYLQMNSLKPEDTAVYYCAAYITDVAGRAYDYWGQGTQVTVSS | high polyreactivity |
| QVQLVESGGGLVQAGGSLRLICAASGFTFSQYAMGWYREAPGKERELVAAISWNGGSTYYADSVKGRFTISRDNAKNTVYLQMNSLKPEDTAVYYWNRRWPFVRFYYWGQGTQVTVSS | high polyreactivity |
| QVQLVESGGGLVQAGGSLRLICAASGFTFVANAMGWYRQAPGKERELVAVIDWDDGSTYYADSVKGRFTISRDNAKNTVYLQMYSLKPEDTAVYYCARDVYASPRLYTSRYNYWGQGTQVTVSS | low polyreactivity |
| QVQLVESGGGLVQAGGSLRLICAASGFTFYKYTMGWYRQAPGKERELVAAISARGGSTYYADSVKGRFTISRDNAKNTVYLQMNSLKPEDTAVYYCAADYWRTYGLGYDYWGQGTQVTVSS | high polyreactivity |
| QVQLVESGGGLVQAGGSLRLICAASGFTIWFNAMGWYRQAPWKERDLVATIRGSGGTTYYAYSVKGRFTISRDNAKNTVYLQMNSLKPEDTAVYYCAAEGSFRKFDYCGQGTQVTVSS | low polyreactivity |
| QVQLVESGGGLVQAGGSLRLICAASGFTIYRYAMGWYRQAPGKERELVATIRRGGSTKYADSVKGRFTISRDNAKNTVYLQMNSLKPEDTAVYYCNARYYAAPDKYYYWGQGTQVTVSS | low polyreactivity |
| QVQLVESGGGLVQAGGSLRLICAASGFTLADNGMGWYRQAPGKERELVATISGGGSTNYADSVKGRFTISRDNAKNTVYLQMISLKPEDTAVYYCAKEGRYSWYTLSEYDYWGQGTQVTVSS | low polyreactivity |

| Sequence | polyreactivity (PSR sort gate) |
| --- | --- |
| QVQLVESGGGLVQAGGSLRLICAASGFTLTRNAMGWYRQAPGKESELVAAISWSGGTTYYADSVKGRFTISRDNAKNTVYLQMNSLKPEDTAFYYCNTASWRDQYYYWGQVTQVTVSS | high polyreactivity |
| QVQLVESGGGLVQAGGSLRLICAASGGIFYVNAMGWYRQAPGKERELVADIRYSGTSTYYADSVKGRFTISRDNAKNTVYLQMNSLKPEDTAVYYCAVDAWDTTLVYEQGAERDSWGQGTQVTVSS | low polyreactivity |
| QVQLVESGGGLVQAGGSLRLICAASGIIFAVYARGCYRQAPGKERELVAAISTSGGRTDYADSVKGRFTISRDNAKNTVYLQMNSLKPEDTAVYYCAAEYVGKGTPDDYDYWGQGTQVTVSS | high polyreactivity |
| QVQLVESGGGLVQAGGSLRLICAASGIIFGNNAMGRYRQAPGKERELVAAIRWSTGTTYYADSVKGRFTISRDNATNTVYLQMNSLKPEDTAVYYCAARLRREYGYWGQGTQVTVSS | high polyreactivity |
| QVQLVESGGGLVQAGGSLRLICAASGIIFRSYAMGWYRQAPGKERELVAGISLSGGSTYYADSVKGRFTISRDNAKNTVYLQMNSLKPEDTAVYYCAARRRYKSGYWGQGTQVTVSS | high polyreactivity |
| QVQLVESGGGLVQAGGSLRLICAASGIIFRVYAMGWYRQAPGKERELVATITWSGGSTFYADSVKGRFTISRDNAKNTVDLQRNSLKPEDTAVYYCAARGYLRGEQLYVLIRYDYWGQGTQVTVSS | low polyreactivity |
| QVQLVESGGGLVQAGGSLRLICAASGIIFTGYTMGWYRPAPGKERELVAAITWRGGSTYYADSVKGRFTISRDNAKNTVYLQMNSLKPEDTAVYYCAAEGWYSWDDDYWGQGTQVTVSS | low polyreactivity |
| QVQLVESGGGLVQAGGSLRLICAASGIIFYKYTMGWYRQAPGKERELVAAITKSGVRTYYADSVKGRFTISRDNAKNTVYLQMNSLKPEDTAVYYCAAKTPTKDRGSDFDYWGQGTQVTVSS | high polyreactivity |
| QVQLVESGGGLVQAGGSLRLICAASGIIFYRYAMGWYRQAPGKEREFVAAISRGGGSTYYADSVKGRFTISRDNAKNTVYLQMNSLKPEDTAVYYCNARVTRVTVDQYSIKSMDYWGQGTQVTVSS | high polyreactivity |
| QVQLVESGGGLVQAGGSLRLICAASGIILFYAMGWYRQAPGKERELVAAISSGGGTSYADSVKGRFTLSRDNAKKTVYLQMNSLKPEDTAVYYCAKTDGFYRGDGYWGQGTQVNVSS | low polyreactivity |
| QVQLVESGGGLVQAGGSLRLICAASGITFTGYAMGWYREAPGKEREVVAPISKRGARTYYADSVKGRFTISRDNAKHTVYVQMNSLQPEDTAVYYCAVRRWGYWTGYRGLDYDYWGQGTQVTVSS | high polyreactivity |
| QVQLVESGGGLVQAGGSLRLICAASGITFTQYAMGWYRQAPGNEREFVAGITISGSSTYYADSVKGRFTISRDNAKNTVYLQMNRLKPEDTAVYYCAAGVRRVYASGHGAYGYWGQGTQVTVSS | low polyreactivity |
| QVQLVESGGGLVQAGGSLRLICAASGLIFPRYDMGWYRQAPGKERELVAAITSGGGTYYADSVKGRFTISRDNAKNTVYLQMNSLKPEDTAVYYCARDHYRHSRYFYRYDYWGQGTQVTVSS | low polyreactivity |
| QVQLVESGGGLVQAGGSLRLICAASGLILKYYAMGWYRQAPGKEREFVAAITRRGGITYYADSVKGRFTISRDNAKNTVYLQMNSLKPEDTAVYYCAADPKLGSLAYWRYSYPLYDYWGQGTQVTVSS | low polyreactivity |
| QVQLVESGGGLVQAGGSLRLICAASGLTFTKYAMGWYRQAPGKERELVATITSGGSTNYADSVKGRFTISRDNAKNTVYLQMNSLKPEDTAVYYCNRDNYKWPYWEFDYWGQGTQVTVSS | high polyreactivity |
| QVQLVESGGGLVQAGGSLRLICAASGLTFYYYAMGWYRQAPGKERELVAASSTRGTSTYYADSVKGRFTISRDNSKNTVYLQMNSLKPEDTAVYYCAADSYPCGTGGDYWGQGTQVTVSS | high polyreactivity |
| QVQLVESGGGLVQAGGSLRLICAASGNIFDVNAMGLYRQAPGKERELVAGITTNGGRTFYADSVKGRFTFSRDNAKNTVYLQMNSLKPEDTAVYYWNARHGRHRRTPFAKYDFWGQGTQVTVSS | high polyreactivity |
| QVQLVESGGGLVQAGGSLRLICAASGNTFYRNAMGLYRQAPGKERELVAAIDYSAGSTYYADSVKWRFTISRDNAKYSVFFQMKSLNPEDTAVYYCAADARTSRGGRYYYWGQGTQVTVSS | low polyreactivity |
| QVQLVESGGGLVQAGGSLRLICAASGRIFAYYAMGWYRHAPGKERELVAAISGSGRTYYADSVKGRFTISRDNAKYTVYLQMNSLKPEDTAVYYCNNVYSFYYTEGYDYWGQVTQVTVSS | high polyreactivity |
| QVQLVESGGGLVQAGGSLRLICAASGRIFDGYAMGWYRQAPGKERELVAAISSDGGSTNYADSVKGRFTISRDNAKNTVYLQMNSLKPEDTAVYYCAESRLGEYLGYDYWGQGTQVTVSS | low polyreactivity |
| QVQLVESGGGLVQAGGSLRLICAASGRIFGTNAKGWYRQAPGKERELVADITSGGSTNYADSVKGRFTISRDNAKNTVYLQMNSLKPEDTAVYYCAADVIGDLRWYRDEYWGQGTQVTVSS | low polyreactivity |

From the nanobody polyreactivity screen of Harvey et al. (2022)
